Changes are numbered by the printed parent chain. Names and notes keep the numbering of the source. Numbered stars: 1 amine (or outer) side, 2 acyl side, 3 side chain; on linkers, the order of the positions; unused ones are H or OH. Peptide text beside a SMILES is read from it. * marks the point of attachment. pNA = O=[N+]([O-])c1ccc(N*)cc1; Suc = O=C(CCC(=O)[*:2])[*:1]

Test in all cases: Kinetic parameters for hydrolysis of synthetic peptide substrate
The target in series [1] is T1, Bacillus lentus subtilisin (GG36), wild type, Seq. ID No.10 (Lederbergia lenta, UniProt P29600).
T1 construct: The mature subtilisin protein is coded by the codons beginning at the codon GCG (334-336) corresponding to Ala; made in house; host or cells: Bacillus subtilis
T1 sequence (P29600 1-269): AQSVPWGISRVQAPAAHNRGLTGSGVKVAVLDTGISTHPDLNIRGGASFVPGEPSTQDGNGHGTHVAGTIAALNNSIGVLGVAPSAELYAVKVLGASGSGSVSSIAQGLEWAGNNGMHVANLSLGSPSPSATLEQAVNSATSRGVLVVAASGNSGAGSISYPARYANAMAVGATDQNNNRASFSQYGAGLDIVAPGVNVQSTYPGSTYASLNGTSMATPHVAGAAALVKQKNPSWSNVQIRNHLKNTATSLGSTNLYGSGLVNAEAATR
Type of series: biochemical. The note with it: Table III; 0.1 M Tris-HCL buffer, pH 8.6, 25° C. Here is the method:
(§1) The kinetic parameters kcat, KM, and kcat KM are measured for hydrolysis of the synthetic peptide substrate succinyl-L-Ala-L-Ala-L-Pro-L-Phe-p-nitroanilide using the method described in P. Bonneau et al. (1991) J. Am. Chem. Soc., Vol. 113, No. 3, p. 1030. Briefly, a small aliquot of subtilisin variant stock solution is added to a 1 cm cuvette containing substrate dissolved in 0.1 M Tris-HCL buffer, pH 8.6, and thermostated at 25° C. The reaction progress is followed spectrophotometrically by monitoring the absorbance of the reaction product p-nitroaniline at 410 nm. Kinetic parameters are obtained by using a non-linear regression algorithm to fit the reaction velocity and product concentration for each reaction to the Michaelis-Menten equation.
(§2) Numerous variants are made as per the teachings of these Protease Manufacture Examples. Kinetics data and stability data are generated for such variants. The kinetics data are generated using the methods described hereinbefore and are provided in Table V. The stability data are generated as detailed herein.

Series [2] concerns the target T2, B. amyloliquefaciens subtilisin (BPN'), wild type, Seq. ID No.7 (Bacillus amyloliquefaciens, UniProt P00782).
T2 construct: made in house; host or cells: protease-deficient Bacillus subtilis
Type of series: biochemical. The conditions noted are these: Table V; 0.1 M Tris-HCL buffer, pH 8.6, 25° C. As for the experimental part: as §1, §2

Substrate in series [3]: C[C@H](NC(=O)CCC(=O)O)C(=O)N[C@@H](C)C(=O)N1CCC[C@H]1C(=O)N[C@@H](Cc1ccccc1)C(=O)Nc1ccc([N+](=O)[O-])cc1
Type of series: biochemical, Bacillus lentus. The note with it: other: Table III, 0.1 M Tris-HCL buffer, pH 8.6, 25° C. As for the experimental part:
as §1, §2

Substrate in series [4]: C[C@H](NC(=O)CCC(=O)O)C(=O)N[C@@H](C)C(=O)N1CCC[C@H]1C(=O)N[C@@H](Cc1ccccc1)C(=O)Nc1ccc([N+](=O)[O-])cc1
Type of series: biochemical, Bacillus lentus. The note with it: other: Table III, 0.1 M Tris-HCL buffer, pH 8.6, 25° C. Here is the method: as §1
The source holds these as a separate data set.

Substrate in series [5]: C[C@H](NC(=O)CCC(=O)O)C(=O)N[C@@H](C)C(=O)N1CCC[C@H]1C(=O)N[C@@H](Cc1ccccc1)C(=O)Nc1ccc([N+](=O)[O-])cc1
Type of series: biochemical, Bacillus amyloliquefaciens. The note with it: other: Table V, 0.1 M Tris-HCL buffer, pH 8.6, 25° C. Here is the method:
as §1, §2

T2 sequence (P00782 108-382): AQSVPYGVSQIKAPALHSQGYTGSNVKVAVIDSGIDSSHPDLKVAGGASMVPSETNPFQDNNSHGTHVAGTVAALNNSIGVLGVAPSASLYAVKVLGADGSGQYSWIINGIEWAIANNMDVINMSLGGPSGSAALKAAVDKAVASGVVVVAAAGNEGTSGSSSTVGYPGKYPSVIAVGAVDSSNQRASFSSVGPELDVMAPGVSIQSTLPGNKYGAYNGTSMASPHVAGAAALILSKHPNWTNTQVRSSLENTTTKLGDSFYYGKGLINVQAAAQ

Usually kcat stands for the number of substrate molecules converted per active site and unit of time at saturation. As to `C[C@H](NC(=O)CCC(=O)O)C(=O)N[C@@H](C)C(=O)N1CCC[C@H]1C(=O)N[C@@H](Cc1ccccc1)C(=O)Nc1ccc([N+](=O)[O-])cc1` [succinyl-L-Ala-L-Ala-L-Pro-L-Phe-p-nitroanilide] (Suc-AAPF-pNA), the “kcat/KM” value in series [1] was 218000 M⁻¹ s⁻¹; in series [2], 3.60E + 05 s^-1 M^-1. In series [2], the kcat is 50 s⁻¹.

B1: Bacillus lentus subtilisin (GG36), wild type, Seq. ID No.10 (Lederbergia lenta) (protein)
chain: T1 sequence (P29600 1-269)
notes: The mature subtilisin protein is coded by the codons beginning at the codon GCG (334-336) corresponding to Ala; made in house; host or cells: Bacillus subtilis
As usually defined, the Km is the concentration of substrate that gives half-maximal velocity. As for B1, in series [3], the Michaelis-Menten constant (Km) is 780 µM, the kcat amounted to 170 s⁻¹ and the kcat/Km amounted to 2.20E + 05 s^-1 M^-1.

B2: Bacillus lentus subtilisin variant N76D/S101R (Protease #2) (Lederbergia lenta; N74D/S99R) (protein)
chain: T1 sequence (P29600 1-269) with N74D, S99R
notes: as for B1
For the molecule B2, in series [4], the Michaelis-Menten constant (Km) worked out at 1300 µM, the kcat stood at 371 s⁻¹ and the kcat/Km turned out to be 285000 M⁻¹ s⁻¹.

B3: Bacillus lentus subtilisin variant N76D/N123S (Protease #6) (Lederbergia lenta; N121S/N74D) (protein)
chain: T1 sequence (P29600 1-269) with N74D, N121S
notes: as for B1
Consider B3, for which, in series [4], the Km is 1800 µM, the catalytic constant (kcat) stood at 115 s⁻¹ and the kcat/Km is 64000 M⁻¹ s⁻¹.

B4: Bacillus lentus subtilisin variant N76D/I107V (Protease #5) (Lederbergia lenta; I105V/N74D) (protein)
chain: T1 sequence (P29600 1-269) with N74D, I105V
notes: as for B1
As to B4, in series [4], the Km turned out to be 1100 µM, the kcat turned out to be 219 s⁻¹ and the kcat/Km amounted to 199000 M⁻¹ s⁻¹.

B5: Bacillus lentus subtilisin variant N76D/S99D (Protease #1) (Lederbergia lenta; N74D/S97D) (protein)
chain: T1 sequence (P29600 1-269) with N74D, S97D
notes: as for B1
Take B5: in series [4], the Km was found to be 610 µM, the kcat worked out at 88 s⁻¹ and the kcat/Km came to 144000 M⁻¹ s⁻¹.

B6: Bacillus lentus subtilisin variant N76D/V104I (Protease #4) (Lederbergia lenta; N74D/V102I) (protein)
chain: T1 sequence (P29600 1-269) with N74D, V102I
notes: as for B1
For B6, in series [4], the Km amounted to 1100 µM, the kcat was determined as 459 s⁻¹ and the kcat/Km was 417000 M⁻¹ s⁻¹.

B7: Bacillus lentus subtilisin variant N76D (Lederbergia lenta; N74D) (protein)
chain: T1 sequence (P29600 1-269) with N74D
notes: as for B1
For B7, in series [4], the Km amounted to 800 µM, the turnover number (kcat) was 219 s⁻¹ and the kcat/Km is 274000 M⁻¹ s⁻¹.

B8: Bacillus lentus subtilisin variant N76D/S99D/S101R (Protease #7) (Lederbergia lenta; N74D/S97D/S99R) (protein)
chain: T1 sequence (P29600 1-269) with N74D, S97D, S99R
notes: as for B1
Consider B8, for which, in series [4], the Km is 380 µM, the turnover number (kcat) was determined as 146 s⁻¹ and the kcat/Km stood at 384000 M⁻¹ s⁻¹.

B9: Bacillus lentus subtilisin variant N76D/S103A (Protease #3) (Lederbergia lenta; N74D/S101A) (protein)
chain: T1 sequence (P29600 1-269) with N74D, S101A
notes: as for B1
For B9, in series [4], the Km came to 1400 µM, the turnover number (kcat) was determined as 400 s⁻¹ and the kcat/Km came to 286000 M⁻¹ s⁻¹.

B10: B. amyloliquefaciens subtilisin (BPN') variant BPN'-N76D/Y217L (Bacillus amyloliquefaciens; N183D/Y324L) (protein)
chain: AQSVPYGVSQIKAPALHSQGYTGSNVKVAVIDSGIDSSHPDLKVAGGASMVPSETNPFQDNNSHGTHVAGTVAALDNSIGVLGVAPSASLYAVKVLGADGSGQYSWIINGIEWAIANNMDVINMSLGGPSGSAALKAAVDKAVASGVVVVAAAGNEGTSGSSSTVGYPGKYPSVIAVGAVDSSNQRASFSSVGPELDVMAPGVSIQSTLPGNKYGALNGTSMASPHVAGAAALILSKHPNWTNTQVRSSLENTTTKLGDSFYYGKGLINVQAAAQ
notes: made in house; host or cells: protease-deficient Bacillus subtilis
Consider B10, for which, in series [5], the Michaelis-Menten constant (Km) was found to be 460 µM, the kcat is 380 s⁻¹ and the kcat/Km is recorded as 8.30E + 05 s^-1 M^-1.

The record behind these values is patent US6017871A, “Protease-containing cleaning compositions” (The Procter & Gamble Company, priority 1997, dated 2000).
